Results published in patent US20200207869A1.

Experiments:
[1] = biological target: VWF in the plasma of the mice (endogenous murine VWF) (murine) (UniProt Q8CIZ8); test: sandwich ELISA of mouse plasma, anti-VWF capture, anti-FVIII detection; reference arbitrarily set as 100%
[2] = biological target: purified recombinant human VWF (human) (UniProt P04275); test: BLI (Octet-QK), rhVWF immobilized, FVIII 1.4 nM, single exponential decay
[3] = biological target: purified recombinant human VWF (human) (UniProt P04275); test: BLI (Octet-QK), rhVWF immobilized, FVIII 3.5 nM, single exponential decay
[4] = biological target: VWF in the plasma of the mice (endogenous murine VWF) (murine) (UniProt Q8CIZ8); test: sandwich ELISA of mouse plasma, anti-VWF capture, anti-FVIII detection

wild-type B-domainless FVIII (WT-FVIII-SQ) (from UniProt P00451 20-2351)
VWF-FVIII complex relative to WT-FVIII-SQ [1]: 100%

purified recombinant full-length factor VIII (Kogenate), P00451 20-2351
koff [2]: 0.003 s⁻¹ | koff [3]: 0.0022 s⁻¹

B-domainless FVIII containing a Tyr to Phe replacement at position 1680 (FVIII-SQ/p.Y1680F) (from UniProt P00451 20-2351)
VWF-FVIII complex relative to WT-FVIII-SQ [4]: 8%
